Data taken from US20250326818A1 (UNIVERSIT T BASEL, published 2025).

Target: T1, CD123 ECD wt (human, UniProt P26951 19-305)
T1 construct: Recombinant extracellular domain; Biotinylated when captured for the hIL3 assay; also called CD123_WT; recombinant wildtype CD123
T1 sequence: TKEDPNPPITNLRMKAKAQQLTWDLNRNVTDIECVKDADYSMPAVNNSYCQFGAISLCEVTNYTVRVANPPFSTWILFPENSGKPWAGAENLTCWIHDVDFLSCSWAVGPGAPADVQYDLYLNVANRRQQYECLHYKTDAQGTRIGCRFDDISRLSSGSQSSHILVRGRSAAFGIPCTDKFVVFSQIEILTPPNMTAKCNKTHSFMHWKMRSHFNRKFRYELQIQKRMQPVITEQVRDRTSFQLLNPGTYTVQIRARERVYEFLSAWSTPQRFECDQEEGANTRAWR
Experiment: BLI (Octet), flotetuzumab hIgG1 captured on anti-human Fc tips, CD123 ECD as analyte, level at 250 s
Procedure: Antibody flotetuzumab hIgG1 was captured by Anti-Human Fc capture biosensor (AHC) (Sartorius, PN: 18-5060) for 300 s at 0.5 μg/mL. Analytes CD123 ECD wt and variants (only CD123 ECD variants at high analyte concentrations) were titrated at 7 concentrations from 50 nM to 0.78 nM or 300 nM to 4.7 nM, respectively. Association to analyte was monitored for 300 s and dissociation for 600 s (CD123 wt) and 900 s (CD123 variants). Double reference subtraction was performed against buffer only well and biosensor loaded with a negative hIgG1 control. Regeneration was performed in 10 mM Gly-HCl pH 1.7. Data were analyzed using the Octet Data Analysis software HT

- binding result: binds
B1: Flotetuzumab hIgG1 (antibody, V domains shown)
VH: EVQLVQSGAELKKPGASVKVSCKASGYTFTDYYMKWVRQAPGQGLEWIGDIIPSNGATFYNQKFKGRVTITVDKSTSTAYMELSSLRSEDTAVYYCARSHLLRASWFAYWGQGTLVTVSS
VL: DFVMTQSPDSLAVSLGERVTMSCKSSQSLLNSGNQKNYLTWYQQKPGQPPKLLIYWASTRESGVPDRFSGSGSGTDFTLTISSLQAEDVAVYYCQNDYSYPYTFGQGTKLEIK
notes: Tested as hIgG1 in BLI; also called Anti-CD123 antibody (Flotetuzumab)
